Consider 1 substance from paper doi:10.1101/2021.10.13.464285.

In the assay the target is Respiratory syncytial virus fusion (F) glycoprotein (respiratory syncytial virus, strain rA2-mK+ (parent strain A2)). The experiment in a line: cryo-EM structure.

By stoichiometry N is commonly meant a count of units in the complex or per binding partner. Take “Respiratory syncytial virus fusion (F) glycoprotein (natural protein)”: the stoichiometry N was determined as 3.
